PMC7538418, “Structural basis for the transition from translation initiation to elongation by an 80S-eIF5B complex” (Nature Communications, 2020)

Target: T1, eIF5B (residues 396–1002) (S. cerevisiae, UniProt P39730 396-1002)
T1 construct: translation initiation factor eIF5B (GTPase), Saccharomyces cerevisiae, residues 396-1002; also called eIF5B:GTP; eIF5B-GDP; source: prepared and characterized as described [11]
T1 sequence (looked up): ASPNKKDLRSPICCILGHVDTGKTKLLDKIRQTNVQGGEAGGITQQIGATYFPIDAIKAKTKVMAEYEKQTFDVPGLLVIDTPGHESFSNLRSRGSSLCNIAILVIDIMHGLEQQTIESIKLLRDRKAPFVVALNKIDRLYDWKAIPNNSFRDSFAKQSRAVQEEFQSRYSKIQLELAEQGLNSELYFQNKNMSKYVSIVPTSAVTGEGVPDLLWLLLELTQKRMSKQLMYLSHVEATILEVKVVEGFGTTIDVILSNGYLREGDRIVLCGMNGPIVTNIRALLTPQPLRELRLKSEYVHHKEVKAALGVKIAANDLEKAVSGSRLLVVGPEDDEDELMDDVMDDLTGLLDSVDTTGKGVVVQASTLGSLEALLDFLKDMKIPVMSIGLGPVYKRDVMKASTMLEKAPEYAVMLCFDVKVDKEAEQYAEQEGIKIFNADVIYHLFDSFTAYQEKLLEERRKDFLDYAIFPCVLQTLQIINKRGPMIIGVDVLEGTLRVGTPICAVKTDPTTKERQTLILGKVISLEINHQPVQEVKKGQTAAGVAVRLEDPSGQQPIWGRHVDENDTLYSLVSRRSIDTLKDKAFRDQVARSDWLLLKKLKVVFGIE
Assay: cryo-EM structure; 48S PICs mixed with eIF5B:GTP and 60S, frozen ~40 s after mixing; 30 mM HEPES-KOH pH 7.5, 100 mM KOAc, 10 mM Mg(OAc)2, 1 mM GTP:Mg2+; grids at 21 °C; uL16 within the 60S subunit
Conditions: both partners purified

B1: ribosomal protein uL16 (natural protein, S. cerevisiae)
chain: RRPARCYRYQKNKPYPKSRYNRAVPDSKIRIYDLGKKKATVDEFPLCVHLVSNELEQLSSEALEAARICANKYMTTVSGRDAFHLRVRVHPFHVLRINKMLSCAGADRLQQGMRGAWGKPHGLAARVDIGQIIFSVRTKDSNKDVVVEGLRRARYKFPGQQKIILSKKWGFTNLDRPEYLKKREAGEVKDDGAFVKFLSKKGSLENNIREFPEYFA
notes: ribosomal protein uL16, component of the 60S large ribosomal subunit, Saccharomyces cerevisiae; Stood in the assay as a subunit of the whole 60S/80S ribosome, not as an isolated protein; source: in yeast Saccharomyces cerevisiae 60S ribosomal subunits, prepared as described [11]
B1: binds.
